In the assay the target is spMSP1D1 (MSP1D1 with SpyCatcher at the N-terminus and SpyTag at the C-terminus, circularized). The assay can be described thus: cross-linking + other: fluorescence fluctuation spectroscopy; spMSPs in PC lipid nanodiscs (cNDs); cross-linking: cNDs 0.5 µM in PBS with EGS, room temperature 1 h, SDS-PAGE; fluctuation spectroscopy: molecular brightness of FITC-labeled spMSPs and cNDs (100 pM) in reconstitution buffer by photon counting histogram.

These results are taken from paper PMC8440770.

On to “spMSP1D1 (MSP1D1 with SpyCatcher at the N-terminus and SpyTag at the C-terminus, circularized)”, for which the stoichiometry N turned out to be 2.
